The results in this text go back to patent US20250122306A1 (SUTRO BIOPHARMA, published 2025).

Test [1] addresses T1, cynomolgus tissue factor on HEK293T-cynoTF cells (cynomolgus monkey, UniProt P13726 33-294 (human entry)).
T1 construct: stably transfected HEK293T cells
T1 chain: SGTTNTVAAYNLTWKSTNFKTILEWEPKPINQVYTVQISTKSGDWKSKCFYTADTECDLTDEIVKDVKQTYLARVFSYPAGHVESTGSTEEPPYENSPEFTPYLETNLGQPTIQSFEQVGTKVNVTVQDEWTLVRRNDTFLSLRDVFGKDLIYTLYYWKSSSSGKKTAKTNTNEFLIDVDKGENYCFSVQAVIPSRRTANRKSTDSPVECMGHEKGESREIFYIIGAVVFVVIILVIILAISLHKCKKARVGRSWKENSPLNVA
The test can be described thus: flow cytometry on HEK293T-cynoTF cells, one-site fit of MFI. The text has this:
(§1) HEK293T, BxPC3 cells (TF positive) and NCI-H1703 (TF negative) cells were obtained from ATCC (American Type Culture Collection) and maintained in DMEM: F12 (1:1), high glucose (Corning) supplemented with 10% heat-inactivated fetal bovine serum (ThermoScientific), 1× Penicillin/Streptomycin (Corning) and 2 mmol glutamax (Thermo Fisher Scientific). To generate cells that stably expressing human tissue factor (HEK293T-humanTF) or cynomolgus tissue factor (HEK293T-cynoTF), HEK293T cells were transfected with plasmid vectors that contain the corresponding protein sequence and stable clones were selected with puromycin.
(§2) For a fluorescence-activated cell sorting (FACS) cell-binding assay, cells were collected by Accutase and counted by the Vi-CELL Cell Viability Analyzersharvested and, then re-suspended in FACS buffer (DPBS buffer supplemented with 1% bovine serum albumin). A total of 200,000 cells in 100 μL were incubated on ice with 100 μL of anti-TF antibodies in each well of a 96-well plate. Cells were washed twice with ice-cold FACS buffer and then incubated on ice for 60 mins with 5 μg/mL Alexa 647-labeled donkey anti-human Fc antibody (Jackson ImmunoResearch). Unstained cells and cells stained with secondary antibody alone were used as controls. Cells were washed twice with FACS buffer and analyzed using a BD FACS Canto system. Geometric mean fluorescence intensities (MFI) were fitted using non-linear regression analysis with one site specific binding equation on GraphPad Prism (GraphPad Software; La Jolla, CA).

In test [2] the target is T2, human tissue factor on cells (human, UniProt P13726 33-295).
T2 construct: cell-surface TF, transfected (HEK293T-humanTF) or endogenous (tumour lines, keratinocytes); the cell line is named under assay; also called HEK293T-humanTF; TF on BxPC3, primary human keratinocytes, NCI-H292, HCC1954, NCI-H1975
The test can be described thus: flow cytometry on primary human keratinocytes, one-site fit of MFI. The procedure:
To evaluate antibody binding activity of the anti-TF antibodies on the adult primary keratinocytes, a total of 100,000 keratinocytes per well were incubated on ice with serial dilutions of anti-TF antibodies in FACS buffer (PBS buffer supplemented with 1% bovine serum albumin, 0.05% sodium azide) for 60 minutes. Cells were washed twice with ice-cold FACS buffer and then incubated with 5 microgram/mL Alexa 647 labeled donkey anti-human Fc antibody (Jackson ImmunoResearch, West Grove, PA) on ice for another 60 minutes. Unstained cells and cells stained with secondary antibodies alone were used as controls. Samples were then washed twice using FACS buffer and analyzed using an Attune flow cytometer (Thermo Fisher). Geometric mean fluorescence intensities were fitted using non-linear regression analysis with one site specific binding equation on GraphPad Prism.

Test [3] concerns the target T2, human tissue factor on cells. The test can be described thus: flow cytometry on HEK293T-humanTF cells, one-site fit of MFI.
Description: as §1, §2
In general terms: A flow cytometer gives signals particle by particle.

The target in test [4] is T3, human tissue factor (human TF, Lake Pharma) (human, UniProt P13726 33-251, limits assumed).
T3 construct: bought recombinant antigen; also called CD142
Kind of test: Biacore SPR kinetics, antibody captured on anti-Fc, 1:1 Langmuir fit. The procedure:
(§3) Anti-Fc polyclonal antibodies were immobilized onto a CM4 chip (Cytiva #BR100534) using amine coupling chemistry (Human Antibody Capture Kit, Cytiva #BR100839). The immobilization steps were carried out at a flow rate of 25 μL/min in 1×HBS-EP+buffer (Cytiva #BR100669). The sensor surfaces were activated for 7 min with a mixture of N-hydroxysuccinimide (NHS, 0.05 M) and 1-ethyl-3-(3-dimethylaminopropyl)-carbodiimide (EDC, 0.2 M). The anti-Fc polyclonal antibodies were injected over all 4 flow cells at a concentration of 25 μg/mL in 10 mM sodium acetate, pH 4.5, for 7 min. Ethanolamine (1 M, pH 8.5) was injected for 7 min to block any remaining activated groups.
(§4) Off-rate and kinetic binding experiments were performed at 25° C. using 1×HBS-EP+buffer. Antibodies were injected over the anti-Fc surface at a concentration of 3 μg/mL for 12 seconds at a flow rate of 10 μL/min on flow cells 2, 3 and 4, followed by a buffer wash for 30 seconds at the same flow rate. Single point off-rate analysis was carried out using an antigen concentration of 100 nM. […] After capturing ligand (antibody) on the anti-Fc surface, the analyte (human TF, Lake Pharma; cynomolgus TF, Sino Bio #90885-C08H; mouse TF, R&D Systems #3178-PA) was bound for 180 seconds, followed by a 420 second dissociation phase at a flow rate of […]. Between each ligand capture and analyte binding cycle, regeneration was carried out using 2 injections of 10 mM glycine pH 2.0 for 30 seconds at 30 μL/min, followed by a 30 second buffer wash step.
(§5) The data were fit with the Biacore T200 Evaluation software, using a 1:1 Langmuir binding model. KD (affinity, nM) was determined as a ratio of the kinetic rate constants calculated from the fits of the association and dissociation phases.

The target in test [5] is T4, cynomolgus tissue factor (cynomolgus TF, Sino Bio #90885-C08H) (cynomolgus monkey, UniProt P13726 33-251 (human entry)).
T4 construct: bought recombinant antigen; also called cyno TF
T4 chain: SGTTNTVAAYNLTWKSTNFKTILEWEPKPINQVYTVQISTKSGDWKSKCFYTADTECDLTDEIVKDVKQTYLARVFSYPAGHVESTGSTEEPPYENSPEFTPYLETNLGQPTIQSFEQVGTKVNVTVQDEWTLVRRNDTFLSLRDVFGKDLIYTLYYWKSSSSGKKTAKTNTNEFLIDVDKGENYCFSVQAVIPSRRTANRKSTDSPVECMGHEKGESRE
The description is as above. As for the experimental part:
as §3, §4, §5

T3 sequence (P13726 33-251 limits assumed): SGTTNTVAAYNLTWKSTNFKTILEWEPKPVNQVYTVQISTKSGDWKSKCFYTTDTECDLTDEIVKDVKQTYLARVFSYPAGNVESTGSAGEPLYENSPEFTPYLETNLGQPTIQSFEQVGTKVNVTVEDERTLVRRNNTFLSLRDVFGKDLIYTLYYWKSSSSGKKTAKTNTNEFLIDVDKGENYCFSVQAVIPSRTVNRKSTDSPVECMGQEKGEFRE

B1: mAb 37: aTF_2842-B01_Hc3_Y180/F404TAG pAzMeF; aTF_2842-B01_Lc2 (antibody, IgG1, V domains shown)
VH: EVQLVESGGGLVQPGGSLRLSCAASGFSISSYDMSWVRQAPGKGLEWIGIIGSNGRTYYPDSVKGRFTISRDNSKNTVTLQMNSLRAEDTAVYYCARGLYDGTGNIWGQGTLVTVSS
VL: ELVMTQSPPTLSLSPGERVTLSCRASQSVYGNNWLSWYQQKPGQAPRLLIYGASKLATSIPARFSGSGSGTQFTLTISSLQPEDFAVYYCQGTYYSGDWYFAFGQGTKVEIKR
modifications: pAzMeF at Y180 and F404 (EU), * in the sequence
notes: unconjugated full-length IgG1/kappa, cell-free expressed; also called 2842-B01 HC3/LC2; 2842-B01-HC3/LC2 Y180/F404
Regarding B1, the “Bmax (MFI)” value in test [1] was 493000 MFI; in test [3], 334000 MFI. Also, the Kd in test [1] is 3.9 nM; in test [2] it was 24 nM; in test [3], 3.9 nM; in test [4], 7.3 nM; in test [5], 15.6 nM. In addition, the figures for the off-rate constant (koff) in test [4] and in test [5] were 0.000418 s⁻¹ and 0.00113 s⁻¹, respectively. In addition, the kon stood at 57200 M⁻¹ s⁻¹ in test [4] and 72400 M⁻¹ s⁻¹ in test [5].

What is called Kd is a measure of binding affinity in units of concentration. Read a high Kd as weaker binding. One may read the koff as a measure of how fast the partners let go of each other. Low values mean a long-lived complex, high ones a short-lived complex. A word on the kon: it is a measure of how fast the partners come together. Higher therefore signals faster complex formation.
